Test results published in IntAct's records for PubMed 19242489.

B1: Integrin beta-4 (Homo sapiens), P16144 (parent)
chain: MAGPRPSPWARLLLAALISVSLSGTLANRCKKAPVKSCTECVRVDKDCAYCTDEMFRDRRCNTQAELLAAGCQRESIVVMESSFQITEETQIDTTLRRSQMSPQGLRVRLRPGEERHFELEVFEPLESPVDLYILMDFSNSMSDDLDNLKKMGQNLARVLSQLTSDYTIGFGKFVDKVSVPQTDMRPEKLKEPWPNSDPPFSFKNVISLTEDVDEFRNKLQGERISGNLDAPEGGFDAILQTAVCTRDIGWRPDSTHLLVFSTESAFHYEADGANVLAGIMSRNDERCHLDTTGTYTQYRTQDYPSVPTLVRLLAKHNIIPIFAVTNYSYSYYEKLHTYFPVSSLGVLQEDSSNIVELLEEAFNRIRSNLDIRALDSPRGLRTEVTSKMFQKTRTGSFHIRRGEVGIYQVQLRALEHVDGTHVCQLPEDQKGNIHLKPSFSDGLKMDAGIICDVCTCELQKEVRSARCSFNGDFVCGQCVCSEGWSGQTCNCSTGSLSDIQPCLREGEDKPCSGRGECQCGHCVCYGEGRYEGQFCEYDNFQCPRTSGFLCNDRGRCSMGQCVCEPGWTGPSCDCPLSNATCIDSNGGICNGRGHCECGRCHCHQQSLYTDTICEINYSAIHPGLCEDLRSCVQCQAWGTGEKKGRTCEECNFKVKMVDELKRAEEVVVRCSFRDEDDDCTYSYTMEGDGAPGPNSTVLVHKKKDCPPGSFWWLIPLLLLLLPLLALLLLLCWKYCACCKACLALLPCCNRGHMVGFKEDHYMLRENLMASDHLDTPMLRSGNLKGRDVVRWKVTNNMQRPGFATHAASINPTELVPYGLSLRLARLCTENLLKPDTRECAQLRQEVEENLNEVYRQISGVHKLQQTKFRQQPNAGKKQDHTIVDTVLMAPRSAKPALLKLTEKQVEQRAFHDLKVAPGYYTLTADQDARGMVEFQEGVELVDVRVPLFIRPEDDDEKQLLVEAIDVPAGTATLGRRLVNITIIKEQARDVVSFEQPEFSVSRGDQVARIPVIRRVLDGGKSQVSYRTQDGTAQGNRDYIPVEGELLFQPGEAWKELQVKLLELQEVDSLLRGRQVRRFHVQLSNPKFGAHLGQPHSTTIIIRDPDELDRSFTSQMLSSQPPPHGDLGAPQNPNAKAAGSRKIHFNWLPPSGKPMGYRVKYWIQGDSESEAHLLDSKVPSVELTNLYPYCDYEMKVCAYGAQGEGPYSSLVSCRTHQEVPSEPGRLAFNVVSSTVTQLSWAEPAETNGEITAYEVCYGLVNDDNRPIGPMKKVLVDNPKNRMLLIENLRESQPYRYTVKARNGAGWGPEREAIINLATQPKRPMSIPIIPDIPIVDAQSGEDYDSFLMYSDDVLRSPSGSQRPSVSDDTGCGWKFEPLLGEELDLRRVTWRLPPELIPRLSASSGRSSDAEAPHGPPDDGGAGGKGGSLPRSATPGPPGEHLVNGRMDFAFPGSTNSLHRMTTTSAAAYGTHLSPHVPHRVLSTSSTLTRDYNSLTRSEHSHSTTLPRDYSTLTSVSSHDSRLTAGVPDTPTRLVFSALGPTSLRVSWQEPRCERPLQGYSVEYQLLNGGELHRLNIPNPAQTSVVVEDLLPNHSYVFRVRAQSQEGWGREREGVITIESQVHPQSPLCPLPGSAFTLSTPSAPGPLVFTALSPDSLQLSWERPRRPNGDIVGYLVTCEMAQGGGPATAFRVDGDSPESRLTVPGLSENVPYKFKVQARTTEGFGPEREGIITIESQDGGPFPQLGSRAGLFQHPLQSEYSSITTTHTSATEPFLVDGLTLGAQHLEAGGSLTRHVTQEFVSRTLTTSGTLSTHMDQQFFQT

Variants of: B1
Details: with plec_human PLEC

effect of a mutation on the interaction	Variant
disrupting interaction	R1225H

Variants of: B1
Details: with plec_human PLEC
Remark: another data set of the same source

effect of a mutation on the interaction	Variant
disrupting interaction	R1281A
